Publication PMC5677968, “Familial STAG2 germline mutation defines a new human cohesinopathy” (NPJ Genomic Medicine, 2017)
Positions count from the first letter of the chain named. Values belong to the molecule of their own block, whether it stands above or below them. Square brackets hold non-standard residues; d marks the D form. Ends that are not written are not given here. pT = C[C@@H](OP(=O)(O)O)[C@H](N)C(=O)O

Experiments:
[1] = molecular target: Myc-STAG2 p.Ser327Asn (human) (UniProt Q8N3U4); assay: co-IP; anti-Myc beads, lysates of HeLa Tet-On cells transfected with Myc-STAG2 WT or mutants; 3 h at 4 °C; washes with lysis buffer containing 200 mM NaCl; blots for endogenous proteins
Chain of Myc-STAG2 p.Ser327Asn (human) (Q8N3U4 other isoform, or with tags, fused parts or gaps p.S327N): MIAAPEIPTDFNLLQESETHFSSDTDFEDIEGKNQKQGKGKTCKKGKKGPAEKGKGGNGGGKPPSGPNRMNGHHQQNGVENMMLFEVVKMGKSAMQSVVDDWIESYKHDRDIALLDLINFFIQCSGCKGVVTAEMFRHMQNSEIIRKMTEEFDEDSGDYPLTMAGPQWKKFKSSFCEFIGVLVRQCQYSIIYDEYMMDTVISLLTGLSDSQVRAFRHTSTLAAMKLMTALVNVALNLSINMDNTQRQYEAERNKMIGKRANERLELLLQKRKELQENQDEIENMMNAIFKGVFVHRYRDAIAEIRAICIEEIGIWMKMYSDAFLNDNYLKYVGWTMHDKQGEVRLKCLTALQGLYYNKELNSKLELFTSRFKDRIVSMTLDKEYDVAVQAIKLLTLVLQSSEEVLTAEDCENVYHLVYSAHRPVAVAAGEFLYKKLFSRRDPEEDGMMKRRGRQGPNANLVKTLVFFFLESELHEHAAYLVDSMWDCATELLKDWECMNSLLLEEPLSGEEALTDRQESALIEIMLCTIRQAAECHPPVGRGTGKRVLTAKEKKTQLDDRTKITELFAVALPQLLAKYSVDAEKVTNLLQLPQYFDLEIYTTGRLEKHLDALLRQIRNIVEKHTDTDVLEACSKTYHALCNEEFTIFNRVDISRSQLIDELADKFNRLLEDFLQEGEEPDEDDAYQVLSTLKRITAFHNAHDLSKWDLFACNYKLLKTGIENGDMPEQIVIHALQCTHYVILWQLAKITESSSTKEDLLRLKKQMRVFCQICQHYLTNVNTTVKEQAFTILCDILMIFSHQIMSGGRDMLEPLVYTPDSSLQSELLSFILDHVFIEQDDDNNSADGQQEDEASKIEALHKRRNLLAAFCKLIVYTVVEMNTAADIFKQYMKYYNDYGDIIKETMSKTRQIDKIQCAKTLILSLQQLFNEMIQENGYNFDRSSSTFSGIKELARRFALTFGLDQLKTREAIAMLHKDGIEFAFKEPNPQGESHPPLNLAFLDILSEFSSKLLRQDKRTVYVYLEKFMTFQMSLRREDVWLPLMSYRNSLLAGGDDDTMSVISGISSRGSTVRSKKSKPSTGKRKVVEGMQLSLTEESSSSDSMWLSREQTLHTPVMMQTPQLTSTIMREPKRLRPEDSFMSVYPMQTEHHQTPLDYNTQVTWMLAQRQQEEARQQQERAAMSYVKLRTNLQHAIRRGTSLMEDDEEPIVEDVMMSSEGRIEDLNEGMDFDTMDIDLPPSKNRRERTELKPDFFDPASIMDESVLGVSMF

[2] = molecular target: T1, STAG2(80–930)–SCC1(281–394) complex, WT (human, UniProt Q8N3U4-2 80-930; O60216 281-394); assay: ITC; MicroCal iTC200, 20 °C; 20 uM STAG2(80–930)–SCC1(281–394) complex in the cell, titrated with 300 uM pSGO1 peptide; 20 mM Tris-HCl pH 7.7, 200 mM NaCl, 5 mM TCEP; conditions: both partners purified
T1 construct: STAG2 (SA2), human, residues 80-930, in pET28a; SCC1 (RAD21), human, residues 281-394, in pGEX-6p1; also called purified STAG2–SCC1 WT; SA2–SCC1 complex; source: E. coli, co-expressed, purified (Glutathione Sepharose 4B, PreScission cleavage, ion exchange, size exclusion)
T1 sequence (looked up) 1: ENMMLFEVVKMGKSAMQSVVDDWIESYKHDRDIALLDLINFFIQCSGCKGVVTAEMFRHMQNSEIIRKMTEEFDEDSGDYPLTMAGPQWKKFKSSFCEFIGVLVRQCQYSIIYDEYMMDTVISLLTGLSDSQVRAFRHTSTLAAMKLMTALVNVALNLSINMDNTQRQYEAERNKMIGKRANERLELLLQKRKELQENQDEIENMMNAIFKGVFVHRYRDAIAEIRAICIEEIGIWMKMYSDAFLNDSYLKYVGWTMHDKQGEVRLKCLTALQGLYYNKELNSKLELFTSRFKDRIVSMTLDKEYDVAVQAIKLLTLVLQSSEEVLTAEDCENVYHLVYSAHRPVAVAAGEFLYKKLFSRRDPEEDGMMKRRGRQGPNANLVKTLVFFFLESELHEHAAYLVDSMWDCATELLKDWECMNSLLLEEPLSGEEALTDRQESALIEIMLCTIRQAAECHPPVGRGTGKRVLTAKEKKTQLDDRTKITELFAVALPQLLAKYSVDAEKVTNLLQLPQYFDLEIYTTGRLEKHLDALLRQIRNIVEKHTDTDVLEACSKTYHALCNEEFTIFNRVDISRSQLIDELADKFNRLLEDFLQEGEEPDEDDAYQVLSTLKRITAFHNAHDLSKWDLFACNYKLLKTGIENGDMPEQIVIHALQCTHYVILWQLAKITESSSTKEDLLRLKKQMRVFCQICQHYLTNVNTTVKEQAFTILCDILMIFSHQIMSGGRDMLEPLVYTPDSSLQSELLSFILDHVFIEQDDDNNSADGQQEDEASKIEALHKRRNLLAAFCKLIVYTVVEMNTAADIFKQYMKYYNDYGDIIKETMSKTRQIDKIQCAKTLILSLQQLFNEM
T1 sequence (looked up) 2: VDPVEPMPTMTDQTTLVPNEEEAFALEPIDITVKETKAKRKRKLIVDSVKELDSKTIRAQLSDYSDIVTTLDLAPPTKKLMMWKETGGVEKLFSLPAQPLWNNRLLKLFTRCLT

[3] = molecular target: T2, STAG2(80–930) p.Ser327Asn–SCC1(281–394) complex (human, UniProt Q8N3U4-2 80-930; O60216 281-394, p.Ser327Asn); assay: as above; conditions: both partners purified
T2 construct: STAG2 (SA2), human, residues 80-930, patient germline variant p.Ser327Asn; SCC1 (RAD21), human, residues 281-394, in pGEX-6p1; The methods describe only the WT STAG2(80–930) vector; also called purified STAG2–SCC1 p.Ser327Asn; SA2–SCC1 p.Ser327Asn; source: E. coli, co-expressed, purified (Glutathione Sepharose 4B, PreScission cleavage, ion exchange, size exclusion)
T2 sequence (looked up) 1: T1 sequence (looked up) 1 with S248N
T2 sequence (looked up) 2: T1 sequence (looked up) 2

reduction of binding against WT [1]: 50%
Molecule: endogenous SMC1 (from UniProt Q14683 1-1233) (natural protein)

Kd [2]: 230 nM | Kd [3]: 290 nM
B1: synthetic phospho-Thr346 SGO1 peptide containing residues 313–353 of human SGO1 (peptide, UniProt Q5FBB7 313-353, looked up)
peptide: KSENKKTVPQKKMHKSVSSNDAYNFNLEEGVHL[pT]PFRQKVS
notes: SGO1, human, residues 313-353; also called pSGO1; phospho-SGO1 peptide; source: synthetic peptide
